Experimental findings from patent publication US20090074795A1, “Methods for addressing ocular diseases through interference with the wnt signaling pathway” (priority 2007, published 2009) are described below.

Assay [1] deals with Vldlr^−/− mice. As to the kind of experiment: Subretinal injection of purified mouse DKK1 in Vldlr−/− mice (β-catenin phosphorylation, VEGF in eyecup). The class given is in vivo. Here is the method:
To confirm the association of the wnt pathway activation with VEGF over-expression in Vldlr^−/− mice, 5 μg purified mouse DKK1, a specific inhibitor of the wnt signal pathway by binding with LRP5/6, were injected into the subretinal space of the Vldlr^−/− mice into one eye and the same amount of a control protein (BSA) into the contralateral eye. Twenty-four hours after the injection, β-catenin phosphorylation and VEGF levels in the eyecup were measured by western blot analysis.
Vldlr^−/− mice received a subretinal injection of 5 μg purified mouse DKK1 into the right eyes, and the same amount BSA into the left eyes. According to embodiments shown in FIG. 9A, The eyecups were dissected 24 h following the injection for the following analyses, phosphorylated β-catenin and VEGF levels were measured by Western blot analysis of a representative mouse eyecup using the anti-phosphorylated β-catenin and anti-VEGF antibodies, respectively. According to embodiments shown in FIG. 9B, VEGF protein levels in Vldlr^−/− eyecups were measured using ELISA. According to embodiments shown in FIG. 9C, VEGF mRNA levels in the Vldlr^−/− eyecups were measured using quantitative real-time RT-PCR. Values are mean±SD (n=4). According to embodiments shown in FIGS. 9D-9G, Vldlr^−/− mice were injected with 5 μg/eye BSA into the subretinal space of the left eye (FIGS. 9D and 9F) and the same amount of DKK1 into the right eye (FIGS. 9E and 9G). The ocular sections were immunostained with an anti-VEGF antibody (FIGS. 9D and 9E) and an anti-β-catenin antibody (FIGS. 9F and 9G). 400×. PRL, photoreceptor layer. According to embodiments shown in FIGS. 9H and 9I, HUVEC were transfected with the VLDLR siRNA. The transfected cells were treated with 10 μg/ml human DKK1or BSA. VEGF protein was measured in the culture medium by ELISA (FIG. 9H) and the VEGF mRNA measured in the cells by real-time RT-PCR, normalized by 18s RNA and expressed as arbitrary unit (mean±SD, n=3) (FIG. 9I), 24 hours after the addition of DKK1.
VEGF ELISA: The human VEGF QuantiGlo ELISA kit (R&D Systems, Inc., Minneapolis, Minn.) was used to measure VEGF levels in HUVEC and ARPE19 cells, and the mouse VEGF Quantikine ELISA kit (R&D Systems, Inc.) was used for mouse tissues following the manufacturer's protocol. The samples of the culture medium were concentrated 10 times, and the samples from mouse tissues were diluted 10 times to ensure that the VEGF concentration fell within the range of the VEGF standard curves.
Western Blot Analysis: The same amount (100 μg) of total proteins from mouse eyecups were used for Western blot analysis using specific primary antibodies for each protein and blotted with an horseradish peroxidase-conjugated secondary antibody. The signal was developed with a chemiluminescence detection kit (ECL; Amersham Biosciences). Blots were then stripped and re-blotted with an antibody specific for β-actin. Each protein band was semiquantified by densitometry and normalized by β-actin levels in the same gel.
Quantitative Real-time Reverse Transcription (RT)-PCR: Mice eyes were enucleated immediately after death into chilled diethylpyrocarbonate-treated normal saline, and the retinas were dissected. Total RNA was isolated using a commercial kit (Qiagen, Santa Clarita, Calif.). […] Fluorescence changes were monitored after each cycle. […] The average CT (threshold cycle) of fluorescence unit was used to analyze the mRNA levels. […]

In assay [2] the test system is bovine retinal capillary endothelial cells (BRCEC). Kind of assay: Intracellular ROS generation assay in BRCEC. The class given is cell-based. Particulars: DKK1 6.25-100 nM, 2 h, CM-H2DCFDA. Here is the method:
A primary culture of bovine retinal capillary endothelial cells (BRCEC) were exposed to 30 mM glucose or TNF-α in the absence or presence of various concentrations of DKK1 (6.25-100 nM) for 2 h. Aminoguanidine was used as a positive control as it is a known inhibitor of ROS generation.
According to embodiments of experimental data shown in FIG. 14, BRCEC were exposed to 30 mM glucose or 1 μg/ml TNF-α in the absence or presence of various concentrations of DKK1 (6.25-100 nM) for 2 h, 10 μM aminoguanidine (AG) was used as positive control. Intracellular ROS generation was measured using CM-H2DCFDA, and expressed as fluorescent unit per well (means±SD, n=3).

The subject of assay [3] is primary RCEC. Kind of assay: HIF-1 activation and VEGF expression induced by LiCl in primary RCEC. The class given is cell-based, bovine. The conditions noted are these: 50 mM LiCl plus 85 ng/ml DKK1, 24 hours. Here is the method:
Blockade of the wnt pathway by DKK1 down-regulates VEGF and HIF-1 expression and reduces vascular leakage in the retina of diabetic rats. To activate the wnt pathway, primary RCEC were treated with 50 mM LiCl, a specific activator of the wnt pathway, in the presence or absence of 85 ng/ml DKK1, a specific inhibitor of the wnt pathway, or BSA for 24 hours. Hypoxia was used as a positive control for HIF-1 activation. The HIF-1 nuclear translocation, a key step in its activation, was measured by immunocytochemistry. Both LiCl and hypoxia increased nuclear levels of HIF-1α, indicating an increased nuclear translocation.
According to embodiments of experimental data, RCEC were exposed to normoxia (FIG. 17A), hypoxia (1% O2) (FIG. 17B), 50 mM LiCl with BSA (FIG. 17C), or 50 mM LiCl plus 85 ng/ml DKK1 (FIG. 17D) for 24 hours. The nuclear translocation of HIF-1α was determined by immunocytochemistry with an antibody against HIF-1α. […] In FIG. 17E, the total levels of VEGF and HIF-1α were determined by western blot analysis with an antibody against HIF-1α or VEGF.

Where [4] appears, read: 5 μg/eye subretinal, immunohistochemistry, vs BSA contralateral eye.

“Also recorded” adds a separate entry of the source.

B1: DKK1: Purified Dickkopf-1 protein (R&D System), specific inhibitor of the wnt pathway binding LRP5/6; mouse protein in mice, human in HUVEC (protein, UniProt O54908 32-272; O54908 32-272, looked up)
Dickkopf-related protein 1 1: TLNSVLINSNAIKNLPPPLGGAGGQPGSAVSVAPGVLYEGGNKYQTLDNYQPYPCAEDEECGSDEYCSSPSRGAAGVGGVQICLACRKRRKRCMRHAMCCPGNYCKNGICMPSDHSHFPRGEIEESIIENLGNDHNAAAGDGYPRRTTLTSKIYHTKGQEGSVCLRSSDCAAGLCCARHFWSKICKPVLKEGQVCTKHKRKGSHGLEIFQRCYCGEGLACRIQKDHHQASNSSRLHTCQRH
Dickkopf-related protein 1 2: B1 Dickkopf-related protein 1 1
modifications: mouse protein in mice, human in HUVEC
With B1, the “VEGF mRNA levels in Vldlr−/− eyecups” value in assay [1] (5 μg subretinal, 24 h, real-time RT-PCR, vs BSA) was “significantly decreased”. For the same molecule, the “phosphorylation of β-catenin in eyecup” value in assay [1] (5 μg subretinal, 24 h, western blot, vs BSA contralateral eye) is reported as “increased phosphorylation of β-catenin”. Also, the “VEGF protein levels in Vldlr−/− eyecups” value in assay [1] (5 μg subretinal, 24 h, western blot/ELISA, vs BSA) is “significantly decreased”. For the same molecule, in assay [1] (setting [4]), the “levels of VEGF in the RPE” value is “significantly decreased” and the “levels of β-catenin in the RPE” value is reported as “significantly decreased”. Moreover, the “ROS generation induced by TNF-α” value in assay [2] (1 μg/ml TNF-α) was “blocked the ROS generation”. Further, the “ROS generation induced by high glucose” value in assay [2] (30 mM glucose) was “blocked the ROS generation”. Besides, in assay [3] (immunocytochemistry), the “HIF-1 nuclear translocation induced by LiCl” value is “inhibited the HIF-1 nuclear translocation; also recorded: blocked”. Also, in assay [3] (western blot), the “HIF-1α over-expression induced by activation of the wnt pathway” value is “blocked” and the “VEGF over-expression induced by activation of the wnt pathway” value was “blocked”.
